Experimental findings from patent US20120322135A1 are described below.

Assay [1] has as its target rabies virus antibody (antigen), second of the two types used in the screening ELISA (AS 2) (rabies virus). Description: ELISA, 150 µl culture supernatant. In general terms: An ELISA detects its analyte on a solid surface through an enzyme-linked reagent.
The target in assay [2] is rabies virus antibody (antigen), first of the two types used in the screening ELISA (AS 1) (rabies virus). Description: ELISA, 150 µl culture supernatant.
Assay [3] addresses rabies virus antibody (antigen), second of the two types used in the screening ELISA (AS 2) (rabies virus). Nature of the assay: ELISA, 10 ml culture cell breakage liquid.
Assay [4] concerns the target rabies virus antibody (antigen), first of the two types used in the screening ELISA (AS 1) (rabies virus). Nature of the assay: ELISA, 10 ml culture cell breakage liquid.

B1: LC23F1 (protein)
light: DIVMTQTPLSSPVTLGQPASISCRSSQSLVHSDGNTYLSWLQQRPGQPPRLLIYKISNRFSGVPDRFSGSGAGTDFTLKISRVEAEDVGIYYCMQGLQTPLTFGGGTKVDLKRTVAAPSVFIFPPSDEQLKSGTASVVCLLNNFYPREAKVQWKVDNALQSGNSQESVTEQDSKDSTYSLSSTLTLSKADYEKHKVYACEVTHQGLSSPVTKSFNRGEC
For B1, the AS 2 (Antigen Specificity, ELISA signal) in assay [1] came to 0.219; in assay [3] it was 2.95. In addition, the AS 1 (Antigen Specificity, ELISA signal) worked out at 0.249 in assay [2] and 0.821 in assay [4].

B2: LC22F6 (protein)
light: DIVMTQSPLSLPVTPGEPASISCRSSQSLLHSNGFNYLDWYLQKPGQSPQLLIYLGSTRASGVPDRFSGSGSGTDFTLRISRVEAEDVGVYFCMQAVQTPFTFGPGTRLDIKRTVAAPSVFIFPPSDEQLKSGTASVVCLLNNFYPREAKVQWKVDNALQSGNSQESVTEQDSKDSTYSLSSTLTLSKADYEKHKVYACEVTHQGLSSPVTKSFNRGEC
As for B2, the AS 2 (Antigen Specificity, ELISA signal) in assay [1] amounted to 0.175; in assay [3], 2.77. The results for the AS 1 (Antigen Specificity, ELISA signal) in assay [2] and in assay [4] were 0.275 and 0.5, respectively.
